The values below come from patent publication US20220153832A1 (PIONYR IMMUNOTHERAPEUTICS, published 2022).

Experiment [1] concerns the target T1, recombinant cynomolgus MARCO protein (cynomolgus, UniProt A0A2K5X0Z2 65-519).
T1 construct: Construct not described; also called cyno MARCO; cynoMARCO
T1 sequence: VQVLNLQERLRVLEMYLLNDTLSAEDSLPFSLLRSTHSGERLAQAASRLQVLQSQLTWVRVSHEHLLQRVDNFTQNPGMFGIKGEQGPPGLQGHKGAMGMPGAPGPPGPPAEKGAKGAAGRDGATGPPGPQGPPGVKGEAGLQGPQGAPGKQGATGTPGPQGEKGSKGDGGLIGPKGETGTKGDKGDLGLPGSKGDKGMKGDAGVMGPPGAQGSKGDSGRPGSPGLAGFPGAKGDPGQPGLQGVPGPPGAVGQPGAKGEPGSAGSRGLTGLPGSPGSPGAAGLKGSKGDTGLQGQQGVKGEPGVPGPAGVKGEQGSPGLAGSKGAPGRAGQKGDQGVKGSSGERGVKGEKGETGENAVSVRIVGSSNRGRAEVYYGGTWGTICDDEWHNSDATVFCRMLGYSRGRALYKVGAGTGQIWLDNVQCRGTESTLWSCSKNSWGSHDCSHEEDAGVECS
Kind of experiment: KD (nM) Cyno; method not given.

In experiment [2] the target is T2, Cynomolgus MARCO, full length, on cells (cynomolgus, UniProt A0A2K5X0Z2 1-519).
T2 construct: whole, on cells; also called cyno MARCO; CyMARCO
T2 sequence: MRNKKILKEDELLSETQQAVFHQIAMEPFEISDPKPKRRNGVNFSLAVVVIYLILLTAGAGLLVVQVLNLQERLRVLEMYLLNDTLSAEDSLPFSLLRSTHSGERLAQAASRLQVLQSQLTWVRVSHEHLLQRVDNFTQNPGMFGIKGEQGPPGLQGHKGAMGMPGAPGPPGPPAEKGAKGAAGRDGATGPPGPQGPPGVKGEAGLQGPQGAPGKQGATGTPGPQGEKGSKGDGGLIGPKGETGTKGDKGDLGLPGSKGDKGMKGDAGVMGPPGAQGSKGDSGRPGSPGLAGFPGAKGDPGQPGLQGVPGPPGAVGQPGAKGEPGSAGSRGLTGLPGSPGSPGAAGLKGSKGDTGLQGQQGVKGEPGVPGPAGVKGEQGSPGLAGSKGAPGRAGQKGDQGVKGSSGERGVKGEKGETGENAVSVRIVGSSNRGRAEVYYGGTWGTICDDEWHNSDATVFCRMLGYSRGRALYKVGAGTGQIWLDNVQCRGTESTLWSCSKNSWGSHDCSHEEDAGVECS
In words: flow cytometry, cells overexpressing cyno MARCO. (In general: Flow cytometry measures light scatter and fluorescence of single cells or particles in a stream.)

Experiment [3] addresses T3, N-terminally polyhistidine tagged human MARCO ECD (147-520), recombinant (human, UniProt Q9UEW3 147-520).
T3 construct: also called PI-RG-3000; recombinant human MARCO; not shown: N-terminal polyhistidine tag
T3 sequence: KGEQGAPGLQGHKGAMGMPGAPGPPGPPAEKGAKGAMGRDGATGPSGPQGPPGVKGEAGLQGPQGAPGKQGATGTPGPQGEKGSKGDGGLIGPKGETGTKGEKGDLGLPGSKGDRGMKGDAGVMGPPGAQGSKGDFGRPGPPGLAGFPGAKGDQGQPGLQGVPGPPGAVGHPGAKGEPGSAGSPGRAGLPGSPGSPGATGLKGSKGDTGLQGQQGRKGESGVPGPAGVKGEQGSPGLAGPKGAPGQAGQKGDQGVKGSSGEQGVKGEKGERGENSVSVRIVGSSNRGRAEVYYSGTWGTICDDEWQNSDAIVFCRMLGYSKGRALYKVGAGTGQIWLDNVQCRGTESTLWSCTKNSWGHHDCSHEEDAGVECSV
In words: ELISA readout A450-A620; the panel names no target, the legend says MARCO expressing cells; transiently made reference antibody. In general terms: An ELISA detects its analyte on a solid surface through an enzyme-linked reagent.

Experiment [4] concerns the target T3, N-terminally polyhistidine tagged human …. In words: ELISA on hMARCO ECD with 2 mM Ca2+, A450-A620.
The target is the same in experiment [5]. Kind of experiment: Biacore, recombinant human MARCO; control sample. In general terms: In SPR one partner is held on a chip, and binding of the other changes the refractive index at the surface.
Experiment [6] has the same target. Kind of experiment: Biacore; oxidation stress sample (1 mM AAPH, 6 hrs).
Experiment [7] shares this target. Kind of experiment: Biacore, recombinant human MARCO; control sample. The source holds these as a separate data set.
For experiment [8] the target is unchanged. Kind of experiment: Biacore; isomerization/fragmentation stress sample.
Experiment [9] concerns the target T4, Mouse MARCO, full length, on cells (mouse, UniProt Q60754 1-518).
T4 construct: whole, on cells; the cell type is named under assay; also called muMARCO; MuMARCO
T4 sequence (looked up): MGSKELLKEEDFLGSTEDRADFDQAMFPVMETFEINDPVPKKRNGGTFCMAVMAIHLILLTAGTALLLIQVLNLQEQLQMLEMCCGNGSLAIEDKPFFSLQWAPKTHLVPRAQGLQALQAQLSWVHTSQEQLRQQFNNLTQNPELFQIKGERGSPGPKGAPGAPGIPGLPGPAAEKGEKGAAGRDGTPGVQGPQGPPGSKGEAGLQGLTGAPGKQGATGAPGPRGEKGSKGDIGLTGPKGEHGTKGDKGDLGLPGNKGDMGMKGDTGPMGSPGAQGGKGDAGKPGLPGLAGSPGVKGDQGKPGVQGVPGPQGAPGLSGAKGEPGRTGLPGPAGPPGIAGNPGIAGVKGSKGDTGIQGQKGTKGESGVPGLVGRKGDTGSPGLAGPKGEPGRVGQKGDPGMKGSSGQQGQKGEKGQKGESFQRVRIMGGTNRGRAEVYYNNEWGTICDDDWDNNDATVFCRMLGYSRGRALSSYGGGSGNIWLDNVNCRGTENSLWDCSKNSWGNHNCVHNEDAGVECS
Kind of experiment: flow cytometry, 293T (MuMARCO).

B1: PI-3010-AB (antibody, human IgG1, kappa)
heavy: not shown
light: DIQMTQSPASLSTSLGETVSIECLASEGISNDLAWYQQKSGKSPQLLIYAASRLQDGVPSRFSGSGSGTRYSLKISGMQPEDEADYFCQQSYKYPLTFGSGTKLEIKRTVAAPSVFIFPPSDEQLKSGTASVVCLLNNFYPREAKVQWKVDNALQSGNSQESVTEQDSKDSTYSLSSTLTLSKADYEKHKVYACEVTHQGLSSPVTKSFNRGEC
For the molecule B1, in experiment [1], the equilibrium dissociation constant (Kd) (in general, the free concentration of one partner at which half of the binding sites on the other are occupied at equilibrium, for simple one-to-one binding) was found to be 0.26 nM. The midpoint of the response in experiment [2], the EC50, lay at 0.34 nM.

B2: PI-3015-AB (antibody, human IgG1, kappa)
heavy: not shown
light: DIQMTQSPSSLSASVGDRVTITCRASEGISNDLAWYQQKPGKAPKLLIYAASRLQSGVPSRFSGSGSGTDYTLTISSMQPEDFATYYCQQSYKYPLTFGQGTKLEIKRTVAAPSVFIFPPSDEQLKSGTASVVCLLNNFYPREAKVQWKVDNALQSGNSQESVTEQDSKDSTYSLSSTLTLSKADYEKHKVYACEVTHQGLSSPVTKSFNRGEC
As for B2, the concentration for a half-maximal effect (EC50 (read off the curve)) (commonly the concentration that produces a half-maximal response) in experiment [3] is about 0.2 nM; in experiment [4], about 1 nM. The Kd in [5] came to 1.2 nM; in experiment [6] it was 1.29 nM; in experiment [7], 0.97 nM; in experiment [8] it was 1.24 nM.

B3: PI-HX-3061 (antibody, rat IgG2a)
heavy: EVQLVESGGGLVQPGSSLKLSCVASKFTFSNYGMNWIRQAPKKGLEWIALIYYNSNNKYYADSVKGRFTISRDNSKNTLYLEMNSLRSEDTAMYYCAKSLTGGSDYFDSWGQGVMVTVSSAETTAPSVYPLAPGTALKSNSMVTLGCLVKGYFPEPVTVTWNSGALSSGVHTFPAVLQSGLYTLTSSVTVPSSTWPSQTVTCNVAHPASSTKVDKKIVPRNCGGDCKPCICTGSEVSSVFIFPPKPKDVLTITLTPKVTCVVVDISQDDPEVHFSWFVDDVEVHTAQTRPPEEQFNSTFRSVSELPILHQDWLNGRTFRCKVTSAAFPSPIEKTISKPEGRTQVPHVYTMSPTKEEMTQNEVSITCMVKGFYPPDIYVEWQMNGQPQENYKNTPPTMDTDGSYFLYSKLNVKKEKWQQGNTFTCSVLHEGLHNHHTEKSLSHSP
light: DVQMTQSPSYLAASPGESVSISCKASKSIGTFLAWYQEKPEKTNKLLIYSGSTLQSGTPSRFSGSGSGTDFTLTIRNLEPEDFAVYYCQQHDEYPFTFGSGTKLEIKRADAAPTVSIFPPSTEQLATGGASVVCLMNNFYPRDISVKWKIDGTERRDGVLDSVTDQDSKDSTYSMSSTLSLTKADYESHNLYTCEVVHKTSSSPVVKSFNRNEC
notes: Parental rat hybridoma, rat IgG2a; cross reactive with human and mouse MARCO
Regarding B3, in experiment [9], the half-maximal effective concentration (EC50) (in general, the concentration needed to bring the measured effect to its halfway point) came to 1.52 nM.
